Measurements taken from paper PMC7660097, “Structural Insights into the Interactions of Candidal Enolase with Human Vitronectin, Fibronectin and Plasminogen” (International Journal of Molecular Sciences, 2020).

B1: human vitronectin (natural protein)
chain: DQESCKGRCTEGFNVDKKCQCDELCSYYQSCCTDYTAECKPQVTRGDVFTMPEDEYTVYDDGEEKNNATVHEQVGGPSLTSDLQAQSKGNPEQTPVLKPEEEAPAPEVGASKPEGIDSRPETLHPGRPQPPAEEELCSGKPFDAFTDLKNGSLFAFRGQYCYELDEKAVRPGYPKLIRDVWGIEGPIDAAFTRINCQGKTYLFKGSQYWRFEDGVLDPDYPRNISDGFDGIPDNVDAALALPAHSYSGRERVYFFKGKQYWEYQFQHQPSQEECEGSSLSAVFEHFAMMQRDSWEDIFELLFWGRTSAGTRQPQFISRDWHGVPGQVDAAMAGRIYISGMAPRPSLAKKQRFRHRNRKGYRSQRGHSRGRNQNSRRPSRATWLSLFSSEESNLGANNYDDYRMDWLVPATCEPIQSVFFFSGDKYYRVNLRTRRVDTVDPPYPRSIAQYWLGCPAPGHL
modifications: biotin (NHS-biotin) in the cell-binding assays of Figure 1; sulfo-SDAD on amino groups in the cross-linking
notes: Vitronectin, human; also called VTR; VTR-Bt; source: bought: R&D Systems
B2: C. tropicalis cytosolic enolase (enzyme, UniProt C5MD83 1-440, looked up)
chain: MSYATKIHARTVYDSRGNPTVEVELTTDNGMFRSIVPSGASTGIHEALELRDGDKSKWLGKGVLKAVSNVNDIIAPALIDAKIDVNDQSKIDEFMIKLDGTPNKSKLGANAILGVSLAAANAAAANQGIPLYQHIANLSKSKKDKYVLPVPFQNVLNGGAHAGGDLAFQEFMIVPTGAESFSEAMRIDSEVYHTLKSLAKKKYGQSAGNVGDEGGVAPDLRTPEEALDLIVESIEQAGHTGKVKIAMDPASSEFFKDGKYDLDFKNPNPDPAKRLSGKELAELYERLINKYPIVLLEDPFAEDDWDAWVHFFKIVGDKVQIVADDLTVTNPIRIKKAIEKKCANALLVKVNQIGTLSESIVAANDAFGAGWGVMVSHRSGETEDTFIADLVVGLRAGQIKTGAPARSERLAKLNQILRIEESLGDDAIYAGKNFAVAHQL
modifications: biotin (biotin-labeled enolase) in the microplate assays
notes: Enolase of Candida tropicalis (strain T1, ATCC MYA-3404), cytosolic form; identified by LC-MS/MS; also called C. tropicalis enolase, cytosol; source: purified from C. tropicalis T1 (ATCC MYA-3404) cytosol (ammonium sulphate fractionation, MonoQ, MonoS)
B3: C. albicans cytosolic enolase (enzyme, UniProt P30575 1-440, looked up)
chain: MSYATKIHARYVYDSRGNPTVEVDFTTDKGLFRSIVPSGASTGVHEALELRDGDKSKWLGKGVLKAVANVNDIIAPALIKAKIDVVDQAKIDEFLLSLDGTPNKSKLGANAILGVSLAAANAAAAAQGIPLYKHIANISNAKKGKFVLPVPFQNVLNGGSHAGGALAFQEFMIAPTGVSTFSEALRIGSEVYHNLKSLTKKKYGQSAGNVGDEGGVAPDIKTPKEALDLIMDAIDKAGYKGKVGIAMDVASSEFYKDGKYDLDFKNPESDPSKWLSGPQLADLYEQLISEYPIVSIEDPFAEDDWDAWVHFFERVGDKIQIVGDDLTVTNPTRIKTAIEKKAANALLLKVNQIGTLTESIQAANDSYAAGWGVMVSHRSGETEDTFIADLSVGLRSGQIKTGAPARSERLAKLNQILRIEEELGSEAIYAGKDFQKASQL
modifications: biotin (biotin-labeled enolase) in the microplate assays
notes: Enolase of Candida albicans (strain ATCC 10231), cytosolic form; identified by LC-MS/MS; also called C. albicans enolase, cytosol; source: purified from C. albicans ATCC 10231 cytosol (ammonium sulphate fractionation, MonoQ, MonoS)

How the values were obtained:
[1] = target: T1, C. albicans cell surface-exposed enolase (C. albicans, UniProt P30575 1-440, biotin (biotin-labeled enolase) in the microplate ligand-binding assay); test: SPR; BIACORE 3000; enolase amine-coupled to a CM5 chip (about 300 RU); human protein as analyte (40-750 nM or 75-750 nM), 30 µL/min, 25 °C, 10 mM HEPES, 150 mM NaCl, 0.005% P20, pH 7.4; 1:1 Langmuir global fit with baseline drift and local Rmax; regeneration 1 M NaCl; settings: both partners purified
T1 construct: Enolase of Candida albicans (strain ATCC 10231), form exposed at the cell surface; identified by LC-MS/MS, non-glycosylated, 47 kDa; Same protein as m2, isolated from another compartment; also called C. albicans enolase, cell wall; cell wall-associated enolase

human vitronectin = target: B1; test: as above; settings: both partners purified

Binder | Kd [1] | koff [1] | kon [1] | Kd (human vitronectin) | koff (human vitronectin) | kon (human vitronectin)
B1 | 31.1 nM | 0.00417 s⁻¹ | 134000 M⁻¹ s⁻¹ |  |  | 
B2 |  |  |  | 683 nM | 0.00915 s⁻¹ | 13400 M⁻¹ s⁻¹
B3 |  |  |  | 55.3 nM | 0.00493 s⁻¹ | 89100 M⁻¹ s⁻¹
